These substances were tested on CD8+ T cells (assay: In vitro T-cell priming immunogenicity assay (aAPC with pMHC and anti-CD28, multimer staining)). Conditions: CD8+ T cells of healthy HLA-A*02 donors, three stimulation cycles, multimer readout.
Type: cell-based, human
Text: In order to obtain information regarding the immunogenicity of the TUMAPs of the present invention, the inventors performed investigations using an in vitro T-cell priming assay based on repeated stimulations of CD8+ T cells with artificial antigen presenting cells (aAPCs) loaded with peptide/MHC complexes and anti-CD28 antibody.
In order to perform in vitro stimulations by artificial antigen presenting cells loaded with peptide-MHC complex (pMHC) and anti-CD28 antibody, the inventors first isolated CD8+ T cells from fresh HLA-A*02 leukapheresis products via positive selection using CD8 microbeads (Miltenyi Biotec, Bergisch-Gladbach, Germany) of healthy donors obtained from the University clinics Mannheim, Germany, after informed consent.
PBMCs and isolated CD8+ lymphocytes were incubated in T-cell medium (TCM) until use consisting of RPMI-Glutamax (Invitrogen, Karlsruhe, Germany) supplemented with 10% heat inactivated human AB serum (PAN-Biotech, Aidenbach, Germany), 100 U/ml Penicillin/100 μg/ml Streptomycin (Cambrex, Cologne, Germany), 1 mM sodium pyruvate (CC Pro, Oberdorla, Germany), 20 μg/ml Gentamycin (Cambrex). 2.5 ng/ml IL-7 (PromoCell, Heidelberg, Germany) and 10 U/ml IL-2 (Novartis Pharma, Nurnberg, Germany) were also added to the TCM at this step.
Generation of pMHC/anti-CD28 coated beads, T-cell stimulations and readout was performed in a highly defined in vitro system using four different pMHC molecules per stimulation condition and 8 different pMHC molecules per readout condition.
The purified co-stimulatory mouse IgG2a anti human CD28 Ab 9.3 (Jung et al., 1987) was chemically biotinylated using Sulfo-N-hydroxysuccinimidobiotin as recommended by the manufacturer (Perbio, Bonn, Germany). Beads used were 5.6 μm diameter streptavidin coated polystyrene particles (Bangs Laboratories, Illinois, USA).
800.000 beads/200 μl were coated in 96-well plates in the presence of 4×12.5 ng different biotin-pMHC, washed and 600 ng biotin anti-CD28 were added subsequently in a volume of 200 μl. Stimulations were initiated in 96-well plates by co-incubating 1×10^6 CD8+ T cells with 2×10^5 washed coated beads in 200 μl TCM supplemented with 5 ng/ml IL-12 (PromoCell) for 3 days at 37° C. Half of the medium was then exchanged by fresh TCM supplemented with 80 U/ml IL-2 and incubating was continued for 4 days at 37° C. This stimulation cycle was performed for a total of three times. For the pMHC multimer readout using 8 different pMHC molecules per condition, a two-dimensional combinatorial coding approach was used as previously described (Andersen et al., 2012) with minor modifications encompassing coupling to 5 different fluorochromes. Finally, multimeric analyses were performed by staining the cells with Live/dead near IR dye (Invitrogen, Karlsruhe, Germany), CD8-FITC antibody clone SK1 (BD, Heidelberg, Germany) and fluorescent pMHC multimers. For analysis, a BD LSRII SORP cytometer equipped with appropriate lasers and filters was used. Peptide specific cells were calculated as percentage of total CD8+ cells. Evaluation of multimeric analysis was done using the FlowJo software (Tree Star, Oregon, USA). In vitro priming of specific multimer+CD8+ lymphocytes was detected by comparing to negative control stimulations.
In the case of “319 (SLYKGLLSV; listed as Homo sapiens) [compound 319]”, the “in vitro immunogenicity, wells” value is reported as “++ (20% - 49% = ++)”. In the case of “320 (LLWGNLPEI; listed as Homo sapiens) [compound 320]”, the “in vitro immunogenicity, wells” value is reported as “++ (20% - 49% = ++)”. “321 (KLLAVIHEL; listed as Homo sapiens) [compound 321]” was tested, and the “in vitro immunogenicity, wells” value was “++ (20% - 49% = ++)”. With “322 (TLTNIIHNL; listed as Homo sapiens) [compound 322]” the “in vitro immunogenicity, wells” value was “++ (20% - 49% = ++)”. With “323 (ILVDWLVQV; listed as Homo sapiens) [compound 323]” the “in vitro immunogenicity, wells” value was “++ (20% - 49% = ++)”. In the case of “324 (LLYDAVHIV; listed as Homo sapiens) [compound 324]”, the “in vitro immunogenicity, wells” value is reported as “++ (20% - 49% = ++)”. With “325 (FLFVDPELV; listed as Homo sapiens) [compound 325]” the “in vitro immunogenicity, wells” value was “+++ (50% - 69% = +++)”. “326 (KLTDVGIATL; listed as Homo sapiens) [compound 326]” was tested, and the “in vitro immunogenicity, wells” value was “++++ (≥70% = ++++)”. In the case of “327 (MLFGHPLLVSV; listed as Homo sapiens) [compound 327]”, the “in vitro immunogenicity, wells” value is reported as “++ (20% - 49% = ++)”. With “328 (ILFPDIIARA; listed as Homo sapiens) [compound 328]” the “in vitro immunogenicity, wells” value was “++++ (≥70% = ++++)”.

Same assay, conditions: HLA-A*02 restricted peptides; percentage of positive wells and donors (among evaluable)
With “1 (LLSGQLPTI; listed as Homo sapiens) [compound 1]” the “Wells positive [%]” value was ““+++” (50% - 69% = +++)”. For “2 (LLSEETPSA; listed as Homo sapiens) [compound 2]”, the “Wells positive [%]” value was ““+” (<20% = +)”. In the case of “3 (LTIDTQYYL; listed as Homo sapiens) [compound 3]”, the “Wells positive [%]” value is reported as ““+” (<20% = +)”.

These substances were tested against HLA-A*02:01 (Homo sapiens, UniProt P04439, D140Y/D185E/D98H/E176V/E277Q/G131W/G231S/I119V/I121R/I166T/I218V/L300P/L318F/N151K/N90K/P208A/P217A/Q86G/Q94H/R138H/R169H/T345S) (assay: MHC binding assay (UV-ligand exchange, beta2m ELISA)). Conditions: binding to HLA-A*02:01, UV-ligand exchange.
How it was run: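 UV-exchange pMHC monomers, 100-fold diluted → streptavidin capture 1 h 37 °C → HRP anti-β2m 2 ug/ml 1 h 37 °C → TMB, A450. Yield from HLA-A*02:01/MLA-001 monomer standard curve, 15-500 ng/ml. Only stably bound peptides keep β2m-containing complexes intact.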
With “1 (LLSGQLPTI; listed as Homo sapiens) [compound 1]” the “Peptide exchange (MHC class I binding score, peptide exchange yield)” value (“Peptide exchange” below) was ““+++” (≥50 = +++)”. For “2 (LLSEETPSA; listed as Homo sapiens) [compound 2]”, the “Peptide exchange” value was ““+++” (≥50 = +++)”. With “3 (LTIDTQYYL; listed as Homo sapiens) [compound 3]” the “Peptide exchange” value was ““+++” (≥50 = +++)”. With “275 (KLMDLEDCAL; listed as Homo sapiens) [compound 275]” the “Peptide exchange” value was ““++++” (≥75% = ++++)”. For “276 (NMISYVVHL; listed as Homo sapiens) [compound 276]”, the “Peptide exchange” value was ““++” (≥20% = ++)”. In the case of “277 (FLIDLNSTHGTFL; listed as Homo sapiens) [compound 277]”, the “Peptide exchange” value is reported as ““+++” (≥50 = +++)”. In the case of “278 (FLLFINHRL; listed as Homo sapiens) [compound 278]”, the “Peptide exchange” value is reported as ““+++” (≥50 = +++)”. With “279 (NLAGENILNPL; listed as Homo sapiens) [compound 279]” the “Peptide exchange” value was ““+++” (≥50 = +++)”. In the case of “280 (SLLNHLPYL; listed as Homo sapiens) [compound 280]”, the “Peptide exchange” value is reported as ““++++” (≥75% = ++++)”. With “281 (TLQTVPLTTV; listed as Homo sapiens) [compound 281]” the “Peptide exchange” value was ““++++” (≥75% = ++++)”. “282 (YLLEQGAQV; listed as Homo sapiens) [compound 282]” was tested, and the “Peptide exchange” value was ““++++” (≥75% = ++++)”. “283 (ALMPVTPQA; listed as Homo sapiens) [compound 283]” was tested, and the “Peptide exchange” value was ““+++” (≥50 = +++)”. For “284 (KLQEQIHRV; listed as Homo sapiens) [compound 284]”, the “Peptide exchange” value was ““+++” (≥50 = +++)”. In the case of “285 (SITAVTPLL; listed as Homo sapiens) [compound 285]”, the “Peptide exchange” value is reported as ““+++” (≥50 = +++)”. In the case of “286 (HLTEDTPKV; listed as Homo sapiens) [compound 286]”, the “Peptide exchange” value is reported as ““+++” (≥50 = +++)”. In the case of “287 (ILMGHSLYM; listed as Homo sapiens) [compound 287]”, the “Peptide exchange” value is reported as ““++++” (≥75% = ++++)”. “288 (RLAPEIVSA; listed as Homo sapiens) [compound 288]” was tested, and the “Peptide exchange” value was ““+++” (≥50 = +++)”. In the case of “289 (SLLAANNLL; listed as Homo sapiens) [compound 289]”, the “Peptide exchange” value is reported as ““++++” (≥75% = ++++)”. With “290 (IASPVIAAV; listed as Homo sapiens) [compound 290]” the “Peptide exchange” value was ““+++” (≥50 = +++)”. With “291 (KIIDTAGLSEA; listed as Homo sapiens) [compound 291]” the “Peptide exchange” value was ““+++” (≥50 = +++)”. “292 (KLINSQISL; listed as Homo sapiens) [compound 292]” was tested, and the “Peptide exchange” value was ““+++” (≥50 = +++)”. In the case of “293 (GLAMVEAISYV; listed as Homo sapiens) [compound 293]”, the “Peptide exchange” value is reported as ““++++” (≥75% = ++++)”. “294 (KLYGPEGLELV; listed as Homo sapiens) [compound 294]” was tested, and the “Peptide exchange” value was ““++++” (≥75% = ++++)”. “295 (SLAAVSQQL; listed as Homo sapiens) [compound 295]” was tested, and the “Peptide exchange” value was ““+++” (≥50 = +++)”. In the case of “296 (FILEPLYKI; listed as Homo sapiens) [compound 296]”, the “Peptide exchange” value is reported as ““++++” (≥75% = ++++)”. “297 (ILQNGLETL; listed as Homo sapiens) [compound 297]” was tested, and the “Peptide exchange” value was ““+++” (≥50 = +++)”. For “298 (ALTDVILCV; listed as Homo sapiens) [compound 298]”, the “Peptide exchange” value was ““++++” (≥75% = ++++)”. With “299 (RLLEEEGVSL; listed as Homo sapiens) [compound 299]” the “Peptide exchange” value was ““+++” (≥50 = +++)”. With “300 (IVLERNPEL; listed as Homo sapiens) [compound 300]” the “Peptide exchange” value was ““+++” (≥50 = +++)”. For “301 (LQFDGIHVV; listed as Homo sapiens) [compound 301]”, the “Peptide exchange” value was ““+++” (≥50 = +++)”. With “302 (SLAELDEKISA; listed as Homo sapiens) [compound 302]” the “Peptide exchange” value was ““+++” (≥50 = +++)”. With “303 (FVWEASHYL; listed as Homo sapiens) [compound 303]” the “Peptide exchange” value was ““++++” (≥75% = ++++)”. “304 (ALIRLDDLFL; listed as Homo sapiens) [compound 304]” was tested, and the “Peptide exchange” value was ““+++” (≥50 = +++)”. With “305 (AMLAQQMQL; listed as Homo sapiens) [compound 305]” the “Peptide exchange” value was ““+++” (≥50 = +++)”. In the case of “306 (AQVALVNEV; listed as Homo sapiens) [compound 306]”, the “Peptide exchange” value is reported as ““+++” (≥50 = +++)”. For “307 (FLLPVAVKL; listed as Homo sapiens) [compound 307]”, the “Peptide exchange” value was ““+++” (≥50 = +++)”. In the case of “308 (SLLDQIPEM; listed as Homo sapiens) [compound 308]”, the “Peptide exchange” value is reported as ““+++” (≥50 = +++)”. In the case of “309 (SLSFVSPSL; listed as Homo sapiens) [compound 309]”, the “Peptide exchange” value is reported as ““+++” (≥50 = +++)”. For “310 (VMAEAPPGV; listed as Homo sapiens) [compound 310]”, the “Peptide exchange” value was ““+++” (≥50 = +++)”. For “311 (YLHRQVAAV; listed as Homo sapiens) [compound 311]”, the “Peptide exchange” value was ““+++” (≥50 = +++)”. With “314 (LIDDKGTIKL; listed as Homo sapiens) [compound 314]” the “Peptide exchange” value was ““++” (≥20% = ++)”.
